Data on 1 substance can be found in paper doi:10.1101/2020.08.31.274704.

A word on the Kd: it is the concentration at which binding is half-saturated. By IC50 is commonly meant the concentration that inhibits the measured activity by half.

Test [1] addresses prefusion stabilized trimeric SARS-CoV-2 spike protein ectodomain (S-ECD) (SARS-CoV-2) (UniProt P0DTC2). The test can be described thus: BLI. (Biolayer interferometry detects binding as a change in optical thickness at a sensor tip.)
Test [2] has the same target. Nature of the test: ELISA. Background: In an ELISA, binding on a coated surface is turned into a signal by an enzyme label.

In test [1], “ACE2 monomer, ACE2(1-615)-(GGGGS)5-HRV3C-eGFP-His8 (from UniProt Q9BYF1-1 18-615) (domain or fragment)” showed a Kd of 25 nM. In test [2], this substance registered an IC50 of 27 nM.
